Assay [1] has as its target T1, RapF^N227A (Bacillus subtilis, UniProt P71002, N227A).
T1 construct: 6xHis (N, cleaved yes); made in house; host or cells: Escherichia coli BL21 RIL
The experiment in a line: Gel shift (native PAGE) titration, apparent Kd, RapF^N227A. The assay is classed as binding, B. subtilis. On the procedure: (§1) The formation of complexes was analyzed by native polyacrylamide gel electrophoresis (Native-PAGE), similarly to that described by Salinas et al.. Briefly, mixtures of RapF (WT and mutants), ComA (10 µM of each protein), or Phr peptides (0.5 mM), as indicated, were incubated in buffer A (200 mM NaCl, 50 mM Tris-HCl [pH 8.0]) at room temperature for 30 min, separated by Native-PAGE and visualized by Coomassie blue staining. The peptide binding constants for RapF, RapF^D194A, RapF^N227A, RapF^E303K, and RapF^E303A were calculated following the same approach. Reaction mixtures containing 20 µg of protein and peptide concentrations ranging from 50 nM to 1.2 mM in 20 µl of buffer A were incubated for 15 min at room temperature. Reactions were separated in 8% acrylamide native gel (100 V, 4°C, 2 h) and visualized by Coomassie blue staining. Free protein was quantified using the Multigauge V2.1 software (Fujifilm) and the fraction of bound protein was estimated by subtracting free protein from the input protein. Data were plotted as a fraction of the Phr bound protein versus the Phr concentration, and were analyzed by the Graphpad prism software. The midpoint of the transition was taken as the apparent Kd. To calculate the Kd values, at least three independent experiments were analyzed.
(A gel shift assay detects complexes by their altered migration in electrophoresis.)

Assay [2] addresses T2, RapF (Bacillus subtilis, UniProt P71002).
T2 construct: 6xHis (N, cleaved yes); made in house; host or cells: Escherichia coli BL21 RIL
The assay is classed as binding, B. subtilis. As to conditions: wild-type RapF, at 12 µM PhrF; native PAGE titration. On the procedure:
as §1

The target of assay [3] is T3, RapF^D194A (Bacillus subtilis, UniProt P71002, D194A).
T3 construct: 6xHis (N, cleaved yes); made in house; host or cells: Escherichia coli BL21 RIL
The experiment in a line: Gel shift (native PAGE) titration, apparent Kd, RapF^D194A. In kind it is binding, B. subtilis. On the procedure:
as §1

The target of assay [4] is T4, RapF^E303A (Bacillus subtilis, UniProt P71002, E303A).
T4 construct: 6xHis (N, cleaved yes); made in house; host or cells: Escherichia coli BL21 RIL
The experiment in a line: Gel shift (native PAGE) titration, apparent Kd, RapF^E303A. The assay is classed as binding, B. subtilis. As to the method:
as §1

Assay [5] addresses T5, RapF^N227A (B. subtilis, UniProt P71002 1-381, N227A).
T5 construct: RapF of Bacillus subtilis with Asn227 changed to Ala, made from pPROEX-RapF by site-directed mutagenesis; Same construct as m1 with the point mutation; also called RapF Asn227 to Ala mutant; RapF^N277A (misprint in the text); source: E. coli BL21 RIL, purified as native RapF; not shown: His6, N-terminal, cleaved
T5 sequence: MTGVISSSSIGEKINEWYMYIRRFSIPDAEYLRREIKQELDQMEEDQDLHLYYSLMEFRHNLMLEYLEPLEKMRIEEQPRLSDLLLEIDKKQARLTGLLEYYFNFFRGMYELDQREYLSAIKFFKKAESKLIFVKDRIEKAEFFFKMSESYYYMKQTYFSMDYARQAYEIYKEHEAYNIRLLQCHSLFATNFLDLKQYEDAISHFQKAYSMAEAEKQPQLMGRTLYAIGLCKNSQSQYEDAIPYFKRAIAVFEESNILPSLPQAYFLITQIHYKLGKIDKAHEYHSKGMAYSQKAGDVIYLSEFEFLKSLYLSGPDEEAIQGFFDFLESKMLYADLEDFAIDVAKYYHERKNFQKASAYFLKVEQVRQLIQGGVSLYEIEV
The experiment in a line: native gel or EMSA; Native-PAGE, Coomassie stained; RapF (WT or mutant) and ComA 10 µM each, Phr peptides 0.5 mM; buffer A (200 mM NaCl, 50 mM Tris-HCl pH 8.0), room temperature, 30 min. To be noted: both partners purified.

Assay [6] concerns the target T6, RapF (B. subtilis, UniProt P71002 1-381).
T6 construct: RapF of Bacillus subtilis, amplified from genomic DNA and cloned in pPROEX-HTa; The text speaks of residues up to Val381, which fits the whole protein; also called wild-type RapF; native RapF; source: E. coli BL21 RIL, purified (HisTrap, TEV digestion, Superdex 200); not shown: His6, N-terminal, cleaved
T6 sequence: T5 sequence with A227N
Described as above. As to conditions: both partners purified.

Assay [7] addresses T7, RapF^E303A (B. subtilis, UniProt P71002 1-381, E303A).
T7 construct: RapF of Bacillus subtilis with Glu303 changed to Ala, made from pPROEX-RapF by site-directed mutagenesis; Same construct as m1 with the point mutation; also called RapF Glu303Ala; source: E. coli BL21 RIL, purified as native RapF; not shown: His6, N-terminal, cleaved
T7 sequence: T5 sequence with A227N, E303A
The assay is described as above. To be noted: both partners purified.

The target of the next assay is T8, RapF^E303K (B. subtilis, UniProt P71002 1-381, E303K).
T8 construct: RapF of Bacillus subtilis with Glu303 changed to Lys, made from pPROEX-RapF by site-directed mutagenesis; Same construct as m1 with the point mutation; also called RapF Glu303Lys; source: E. coli BL21 RIL, purified as native RapF; not shown: His6, N-terminal, cleaved
T8 sequence: T5 sequence with A227N, E303K
The assay is described as above. As to conditions: both partners purified.

Assay [8] concerns the target T9, RapF^D194A (B. subtilis, UniProt P71002 1-381, D194A).
T9 construct: RapF of Bacillus subtilis with Asp194 changed to Ala, made from pPROEX-RapF by site-directed mutagenesis; Same construct as m1 with the point mutation; also called RapF Asp194Ala; source: E. coli BL21 RIL, purified as native RapF; not shown: His6, N-terminal, cleaved
T9 sequence: T5 sequence with D194A, A227N
The description is as above. As to conditions: both partners purified.

Residue numbers refer to the chain shown, from its start. No end group written: not given here.

T3 sequence (P71002 whole entry D194A): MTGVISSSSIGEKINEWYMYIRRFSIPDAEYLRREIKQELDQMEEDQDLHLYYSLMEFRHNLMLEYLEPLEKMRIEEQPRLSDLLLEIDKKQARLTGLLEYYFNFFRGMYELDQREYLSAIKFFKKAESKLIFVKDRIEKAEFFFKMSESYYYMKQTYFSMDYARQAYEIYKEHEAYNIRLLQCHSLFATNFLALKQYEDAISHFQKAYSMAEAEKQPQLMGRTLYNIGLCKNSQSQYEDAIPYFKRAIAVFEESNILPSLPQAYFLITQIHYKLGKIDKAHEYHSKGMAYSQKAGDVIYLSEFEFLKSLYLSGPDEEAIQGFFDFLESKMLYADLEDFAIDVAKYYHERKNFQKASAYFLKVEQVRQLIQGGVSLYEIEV
T2 sequence (P71002 whole entry): as the sequence (P71002 whole entry D194A) above, with A194D counted along it

With QRGMI [PhrF], the Kd at RapF^N227A [1] and on RapF^D194A [3] was over 1200 µM each time. Further, the “RapF present in the free form” value at RapF [2] is “less than 30%”.
For the molecule ERGMT [PhrC], the Kd at RapF^E303A [4] is over 1200 µM.

B1: ComA (natural protein, B. subtilis, UniProt P14204 1-214, looked up)
chain: MKKILVIDDHPAVMEGTKTILETDSNLSVDCLSPEPSEQFIKQHDFSSYDLILMDLNLGGEVNGMELSKQILQENPHCKIIVYTGYEVEDYFEEAIRAGLHGAISKTESKEKITQYIYHVLNGEILVDFAYFKQLMTQQKTKPAPSSQKEQDVLTPRECLILQEVEKGFTNQEIADALHLSKRSIEYSLTSIFNKLNVGSRTEAVLIAKSDGVL
notes: also called RR ComA; full-length ComA; source: E. coli BL21 RIL, purified (HisTrap, TEV digestion, Superdex 200); not shown: His6, N-terminal, cleaved
Consider B1, for which the binding result with RapF^N227A [5], with RapF [6], with RapF^E303A [7], with RapF^E303K and with RapF^D194A [8] was “binds” throughout.

The values are drawn from publication PMC3601957, “Structural Basis of Rap Phosphatase Inhibition by Phr Peptides” (PLoS Biology, 2013).
